Data: patent publication US10532083B2, “Methods for inducing differentiation or conversion of white adipocytes and/or preadipocytes to brown adipocites using FGF8” (Technische Universität München, priority 2014, dated 2020)

Columns and labels:
inguinal adipose tissue = experiment: FGF8b releasing pellet implanted into inguinal (subcutaneous) adipose tissue in vivo; design: species or system 129Sv/ev mice; conditions: FGF8b pellets implanted into inguinal adipose tissue
Protocol: Pellets 1.5 mm in diameter were fabricated from a biodegradable matrix to locally release 100 ng FGF8b per day for 21 days (Innovative Research of America, Sarasota, Fla., USA). […] To implant a pellet into the subcutaneous adipose tissue, a mouse of the 129Sv/ev strain was anesthetized, abdominal fur removed and the pellet pushed into the depot through a short cut in the skin. To target the visceral adipose tissue, the pellet was introduced through a small cut each into skin and abdominal wall and placed between lobes of epididymal adipose tissue. Mice were kept in a specific pathogen free barrier facility at room temperature in a 12:12 hour light:dark cycle with free access to food and water. Three weeks after implantation mice were killed by carbon dioxide exposure and dissected. Blood parameters were analyzed with an automated clinical chemistry analyzer (Piccolo xpress system, Abaxis, Darmstadt, Germany). All animal experiments were performed according to the German animal welfare law (permission no. 55.2-1-54-2532-174-11). By visual inspection, the implantation site of FGF8b pellets and the surrounding adipose tissue was of a brown colour, while both the non-implanted contralateral depot and the implantation site of placebo pellets remained characteristically white (FIG. 6A). […]

[1] = system: visceral, epididymal white adipocytes; experiment: Ucp1 / brown adipocyte marker mRNA (qPCR) in immortalized epididymal white adipocytes treated with FGFs; type: cell-based, murine; conditions: for Induction of Ucp1 mRNA expression (browning potential), screening of paracrine FGFs and FGF8 spliceforms: epididymal adipocytes, six days of differentiation, FGF8a, b, e, f 25.0 ng/ml, FGF17 10.0 ng/ml
Protocol: Screening paracrine FGFs for a browning potential. A, B—Screening of all paracrine FGFs in immortalized white adipocytes. Subcutaneous, inguinal and visceral, epididymal white adipocytes were grown to confluence in Dulbecco's modified Eagle's medium with 4.5 g/l glucose, supplemented with 20 nmol/l insulin, 1 nmol/l triiodothyronine, 20% fetal bovine serum, and penicillin/streptomycin. Upon reaching confluence, differentiation was induced with 500 mmol/l isobutylmethylxanthine, 250 mmol/l indomethacine, and 2 mg/ml dexamethasone for 24 hours. Subsequently, members of the paracrine FGF protein family were added to the medium for the following six days. The medium and the FGF indicated were changed every 48 hours. Untreated cells served as a negative control. At the end of the differentiation process total RNA was isolated using TRIzol reagents, RNA quality and concentration was measured by photometric analysis, and 5 μg of total RNA was reverse-transcribed to cDNA. Finally, quantitative analysis of UCP-1 mRNA expression was performed. A bar graph analysis including the SEM of 3 to 6 independent experiments is shown. […] B—Four different splicing forms of the Fgf8 gene were compared by quantifying Ucp1 mRNA expression in fully differentiated white adipocytes. UCP-1 mRNA abundance is shown in percent of the FGF8b value. Fgf8b and Fgf8f were able to increase expression in epididymal adipocytes. C—Illustration depicting the different exon usage that characterizes the FGF8 spliceforms a, b, e, and f.
Dose dependency of Ffg8b action. A, B—Subcutaneous, inguinal and visceral, epididymal white adipocytes were grown to confluence in Dulbecco's modified Eagle's medium with 4.5 g/l glucose, supplemented with 20 nmol/l insulin, 1 nmol/l triiodothyronine, 20% fetal bovine serum, and penicillin/streptomycin. Upon reaching confluence, differentiation was induced with 500 mmol/l isobutylmethylxanthine, 250 mmol/l indomethacine, and 2 mg/ml dexamethasone for 24 hours. Subsequently, FGF8b in five indicated concentrations were added to the medium for the following six days. The medium and the FGF8b were changed every 48 hours. Untreated cells served as a negative control. At the end of the differentiation process total RNA was isolated using TRIzol reagents, RNA quality and concentration was measured by photometric analysis, and 5 μg of total RNA was reverse-transcribed to cDNA. Finally, quantitative analysis of UCP-1 mRNA expression was performed. FGF8b induces Ucp1 mRNA abundance in inguinal and epididymal adipocytes. Epididymal fat cells were more dose dependently responsive to Fgf8b treatment as compared to inguinal cells. The latter were responsive to FGF8b treatment above the threshold indicated. B—The absolute increase of several genes typical for brown fat cells.
Treatment timecourse experiment. A, B—Subcutaneous, inguinal and visceral, epididymal white adipocytes were grown to confluence (prolif. denotes proliferation period) in Dulbecco's modified Eagle's medium with 4.5 g/l glucose, supplemented with 20 nmol/l insulin, 1 nmol/l triiodothyronine, 20% fetal bovine serum, and penicillin/streptomycin. Upon reaching confluence, differentiation was induced with 500 mmol/l isobutylmethylxanthine, 250 mmol/l indomethacine, and 2 mg/ml dexamethasone for 24 hours (induction). Subsequently, the cells were cultured for another six days (differentiation). At the end of the differentiation process total RNA was isolated using TRIzol reagents, RNA quality and concentration was measured by photometric analysis, and 5 μg of total RNA was reverse-transcribed to cDNA. Finally, quantitative analysis of UCP-1 mRNA expression was performed. Untreated cells served as a negative control. A bar graph analysis including the SEM of 5 independent experiments is shown. A—Epididymal fat cells were treated with FGF8b during different time windows as given by black squares indicating one day of treatment each. […]

B1: FGF8b: murine recombinant paracrine fibroblast growth factor 8, major spliceform b (R&D Systems); amino acid sequence identical to human, SEQ ID NO:16/20 (protein)
chain: MGSPRSALSCLLLHLLVLCLQAQVTVQSSPNFTQHVREQSLVTDQLSRRLIRTYQLYSRTSGKHVQVLANKRINAMAEDGDPFAKLIVETDTFGSRVRVRGAETGLYICMNKKGKLIAKSNGKGKDCVFTEIVLENNYTALQNAKYEGWYMAFTRKGRPRKGSKTRQHQREVHFMKRLPRGHHTTEQSLRFEFLNYPPFTRSLRGSQRTWAPEPR
modifications: human FGF8b
- Visual browning and expression of brown adipocyte marker genes (inguinal adipose tissue): did not lead to visual browning or increased expression of brown adipocyte marker genes
- Pgc1a mRNA ([1]; continuous treatment during differentiation, fully differentiated adipocytes (FIG. 2B)): strongly downregulated
- Induction of Ucp1 mRNA expression (browning potential), screening of paracrine FGFs and FGF8 spliceforms [1]: increased expression of Ucp1 mRNA expression
- Induction of Ucp1 mRNA expression (browning potential), screening of paracrine FGFs and FGF8 spliceforms ([1]; listed as Fgf8b): effective
- Ucp1 mRNA abundance, dose dependency ([1]; epididymal cells, different concentrations during entire differentiation phase of 6 days): dose dependent manner
- Most effective concentration for Ucp1 induction ([1]; epididymal cells, highest concentration tested, 6 days of differentiation): 125 ng/mL
- Final Ucp1 mRNA abundance after full differentiation ([1]; epididymal cells, treatment during the induction period): inhibited Ucp1 induction
- Ucp1 mRNA abundance, induction ([1]; fully differentiated epididymal cell line, treatment after induction for entire differentiation period of 6 days, screening concentration 25.0 ng/ml, untreated cells as control): 27.4 fold
